Test results taken from publication PMC4031664.

What was measured:
Assay in all cases: SPR
[1] = target: full-length PrP (PrP23–231) (mouse) (UniProt P04925)
[2] = target: N-terminally truncated PrP (PrP89–230) (mouse) (UniProt P04925)
[3] = target: N-terminally truncated human PrP90–231 (human) (UniProt P04156)
[4] = target: N-terminal human PrP fragment (PrP23–145) (human) (UniProt P04156)

Substance: Quiescin-sulfhydryl oxidase (from UniProt O00391 30-747) (enzyme)
- Kd [1]: 2 nM
- Kd [2]: 312 nM
- Kd [3]: 771 nM
- Kd [4]: 3.6 nM
